# Assays:
# [1] = molecular target: Aβ1-42 peptide fraction consisting primarily of monomers (LMW monomer fraction from SEC); assay: ELISA on coated fraction; antibody dilution 1:64 (starting dilution 0.5 µg/ml); assay 1
# [2] = molecular target: Aβ1-42 peptide fraction enriched in oligomers (high molecular weight fraction from SEC); assay: as above
# [3] = molecular target: Aβ1-42 peptide fraction consisting primarily of monomers (LMW monomer fraction from SEC); assay: ELISA on coated fraction; antibody dilution 1:32 (starting dilution 0.5 µg/ml); assay 3
# [4] = molecular target: Aβ1-42 peptide fraction enriched in oligomers (high molecular weight fraction from SEC); assay: as above
# [5] = molecular target: Aβ1-42 peptide fraction consisting primarily of monomers (LMW monomer fraction from SEC); assay: ELISA on coated fraction; antibody dilution 1:32 (starting dilution 0.5 µg/ml); assay 1
# [6] = molecular target: Aβ1-42 peptide fraction enriched in oligomers (high molecular weight fraction from SEC); assay: as above
# [7] = molecular target: Aβ1-42 peptide fraction enriched in oligomers (high molecular weight fraction from SEC); assay: ELISA on coated fraction; antibody dilution 1:8 (starting dilution 0.5 µg/ml); assay 2
# [8] = molecular target: Aβ1-42 peptide fraction consisting primarily of monomers (LMW monomer fraction from SEC); assay: ELISA on coated fraction; antibody dilution 1:1 (starting dilution 0.5 µg/ml); assay 2
# [9] = molecular target: Aβ1-42 peptide fraction enriched in oligomers (high molecular weight fraction from SEC); assay: as above
# [10] = molecular target: Aβ1-42 peptide fraction consisting primarily of monomers (LMW monomer fraction from SEC); assay: ELISA on coated fraction; antibody dilution 1:128 (starting dilution 0.5 µg/ml); assay 3
# [11] = molecular target: Aβ1-42 peptide fraction enriched in oligomers (high molecular weight fraction from SEC); assay: as above
# [12] = molecular target: Aβ1-42 peptide fraction consisting primarily of monomers (LMW monomer fraction from SEC); assay: ELISA on coated fraction; antibody dilution 1:2 (starting dilution 0.5 µg/ml); mean of 3 assays
# [13] = molecular target: Aβ1-42 peptide fraction enriched in oligomers (high molecular weight fraction from SEC); assay: as above
# [14] = molecular target: Aβ1-42 peptide fraction consisting primarily of monomers (LMW monomer fraction from SEC); assay: ELISA on coated fraction; antibody dilution 1:1 (starting dilution 0.5 µg/ml); mean of 3 assays
# [15] = molecular target: Aβ1-42 peptide fraction enriched in oligomers (high molecular weight fraction from SEC); assay: as above
# [16] = molecular target: Aβ1-42 peptide fraction consisting primarily of monomers (LMW monomer fraction from SEC); assay: ELISA on coated fraction; antibody dilution 1:32 (starting dilution 0.5 µg/ml); assay 2
# [17] = molecular target: Aβ1-42 peptide fraction enriched in oligomers (high molecular weight fraction from SEC); assay: as above
# [18] = molecular target: Aβ1-42 peptide fraction consisting primarily of monomers (LMW monomer fraction from SEC); assay: ELISA on coated fraction; antibody dilution 1:2 (starting dilution 0.5 µg/ml); assay 1
# [19] = molecular target: Aβ1-42 peptide fraction enriched in oligomers (high molecular weight fraction from SEC); assay: as above
# [20] = molecular target: Aβ1-42 peptide fraction consisting primarily of monomers (LMW monomer fraction from SEC); assay: ELISA on coated fraction; antibody dilution 1:64 (starting dilution 0.5 µg/ml); assay 2
# [21] = molecular target: Aβ1-42 peptide fraction enriched in oligomers (high molecular weight fraction from SEC); assay: as above
# [22] = molecular target: Aβ1-42 peptide fraction consisting primarily of monomers (LMW monomer fraction from SEC); assay: ELISA on coated fraction; antibody dilution 1:16 (starting dilution 0.5 µg/ml); assay 2
# [23] = molecular target: Aβ1-42 peptide fraction enriched in oligomers (high molecular weight fraction from SEC); assay: as above
# [24] = molecular target: Aβ1-42 peptide fraction consisting primarily of monomers (LMW monomer fraction from SEC); assay: ELISA on coated fraction; antibody dilution 1:4 (starting dilution 0.5 µg/ml); assay 2
# [25] = molecular target: Aβ1-42 peptide fraction enriched in oligomers (high molecular weight fraction from SEC); assay: as above
# [26] = molecular target: Aβ1-42 peptide fraction enriched in oligomers (high molecular weight fraction from SEC); assay: ELISA on coated fraction; antibody dilution 1:4 (starting dilution 0.5 µg/ml); assay 1
# [27] = molecular target: Aβ1-42 peptide fraction consisting primarily of monomers (LMW monomer fraction from SEC); assay: ELISA on coated fraction; antibody dilution 1:128 (starting dilution 0.5 µg/ml); mean of 3 assays
# [28] = molecular target: Aβ1-42 peptide fraction enriched in oligomers (high molecular weight fraction from SEC); assay: as above
# [29] = molecular target: Aβ1-42 peptide fraction enriched in oligomers (high molecular weight fraction from SEC); assay: ELISA on coated fraction; antibody dilution 1:8 (starting dilution 0.5 µg/ml); assay 3
# [30] = molecular target: Aβ1-42 peptide fraction consisting primarily of monomers (LMW monomer fraction from SEC); assay: ELISA on coated fraction; antibody dilution 1:4 (starting dilution 0.5 µg/ml); assay 3
# [31] = molecular target: Aβ1-42 peptide fraction enriched in oligomers (high molecular weight fraction from SEC); assay: as above
# [32] = molecular target: Aβ1-42 peptide fraction consisting primarily of monomers (LMW monomer fraction from SEC); assay: ELISA on coated fraction; antibody dilution 1:4 (starting dilution 0.5 µg/ml); mean of 3 assays
# [33] = molecular target: Aβ1-42 peptide fraction enriched in oligomers (high molecular weight fraction from SEC); assay: as above
# [34] = molecular target: Aβ1-42 peptide fraction enriched in oligomers (high molecular weight fraction from SEC); assay: ELISA on coated fraction; antibody dilution 1:8 (starting dilution 0.5 µg/ml); mean of 3 assays
# [35] = molecular target: Aβ1-42 peptide fraction consisting primarily of monomers (LMW monomer fraction from SEC); assay: ELISA on coated fraction; antibody dilution 1:16 (starting dilution 0.5 µg/ml); assay 3
# [36] = molecular target: Aβ1-42 peptide fraction enriched in oligomers (high molecular weight fraction from SEC); assay: as above
# [37] = molecular target: Aβ1-42 peptide fraction consisting primarily of monomers (LMW monomer fraction from SEC); assay: ELISA on coated fraction; antibody dilution 1:16 (starting dilution 0.5 µg/ml); mean of 3 assays
# [38] = molecular target: Aβ1-42 peptide fraction enriched in oligomers (high molecular weight fraction from SEC); assay: as above
# [39] = molecular target: Aβ1-42 peptide fraction consisting primarily of monomers (LMW monomer fraction from SEC); assay: ELISA on coated fraction; antibody dilution 1:1 (starting dilution 0.5 µg/ml); assay 1
# [40] = molecular target: Aβ1-42 peptide fraction enriched in oligomers (high molecular weight fraction from SEC); assay: as above
# [41] = molecular target: Aβ1-42 peptide fraction consisting primarily of monomers (LMW monomer fraction from SEC); assay: ELISA on coated fraction; antibody dilution 1:128 (starting dilution 0.5 µg/ml); assay 2
# [42] = molecular target: Aβ1-42 peptide fraction enriched in oligomers (high molecular weight fraction from SEC); assay: as above
# [43] = molecular target: Aβ1-42 peptide fraction consisting primarily of monomers (LMW monomer fraction from SEC); assay: ELISA on coated fraction; antibody dilution 1:1 (starting dilution 0.5 µg/ml); assay 3
# [44] = molecular target: Aβ1-42 peptide fraction enriched in oligomers (high molecular weight fraction from SEC); assay: as above
# [45] = molecular target: Aβ1-42 peptide fraction consisting primarily of monomers (LMW monomer fraction from SEC); assay: ELISA on coated fraction; antibody dilution 1:128 (starting dilution 0.5 µg/ml); assay 1
# [46] = molecular target: Aβ1-42 peptide fraction enriched in oligomers (high molecular weight fraction from SEC); assay: as above
# [47] = molecular target: Aβ1-42 peptide fraction consisting primarily of monomers (LMW monomer fraction from SEC); assay: ELISA on coated fraction; antibody dilution 1:32 (starting dilution 0.5 µg/ml); mean of 3 assays
# [48] = molecular target: Aβ1-42 peptide fraction enriched in oligomers (high molecular weight fraction from SEC); assay: as above
# [49] = molecular target: Aβ1-42 peptide fraction consisting primarily of monomers (LMW monomer fraction from SEC); assay: ELISA on coated fraction; antibody dilution 1:2 (starting dilution 0.5 µg/ml); assay 3
# [50] = molecular target: Aβ1-42 peptide fraction enriched in oligomers (high molecular weight fraction from SEC); assay: as above
# [51] = molecular target: Aβ1-42 peptide fraction consisting primarily of monomers (LMW monomer fraction from SEC); assay: ELISA on coated fraction; antibody dilution 1:64 (starting dilution 0.5 µg/ml); mean of 3 assays
# [52] = molecular target: Aβ1-42 peptide fraction enriched in oligomers (high molecular weight fraction from SEC); assay: as above
# [53] = molecular target: Aβ1-42 peptide fraction consisting primarily of monomers (LMW monomer fraction from SEC); assay: ELISA on coated fraction; antibody dilution 1:8 (starting dilution 0.5 µg/ml); assay 1
# [54] = molecular target: Aβ1-42 peptide fraction enriched in oligomers (high molecular weight fraction from SEC); assay: as above
# [55] = molecular target: Aβ1-42 peptide fraction consisting primarily of monomers (LMW monomer fraction from SEC); assay: ELISA on coated fraction; antibody dilution 1:2 (starting dilution 0.5 µg/ml); assay 2
# [56] = molecular target: Aβ1-42 peptide fraction enriched in oligomers (high molecular weight fraction from SEC); assay: as above
# [57] = molecular target: Aβ1-42 peptide fraction consisting primarily of monomers (LMW monomer fraction from SEC); assay: ELISA on coated fraction; antibody dilution 1:64 (starting dilution 0.5 µg/ml); assay 3
# [58] = molecular target: Aβ1-42 peptide fraction enriched in oligomers (high molecular weight fraction from SEC); assay: as above
# [59] = molecular target: Aβ1-42 peptide fraction consisting primarily of monomers (LMW monomer fraction from SEC); assay: ELISA on coated fraction; antibody dilution 1:16 (starting dilution 0.5 µg/ml); assay 1
# [60] = molecular target: Aβ1-42 peptide fraction enriched in oligomers (high molecular weight fraction from SEC); assay: as above
substance,measurement,setting,value
control antibody 6E10,O.D. (O.D. at 405 nm),[1],0.81
same,O.D. (O.D. at 405 nm),[2],0.93
same,O.D. (O.D. at 405 nm),[3],1.54
same,O.D. (O.D. at 405 nm),[4],1.4
same,O.D. (O.D. at 405 nm),[5],1.18
same,O.D. (O.D. at 405 nm),[6],1.27
same,O.D. (O.D. at 405 nm),[7],2.99
same,O.D. (O.D. at 405 nm),[8],3.77
same,O.D. (O.D. at 405 nm),[9],3.67
same,O.D. (O.D. at 405 nm),[10],0.86
same,O.D. (O.D. at 405 nm),[11],0.66
same,O.D. (mean) (O.D. at 405 nm),[12],3.59
same,O.D. (mean) (O.D. at 405 nm),[13],3.59
same,O.D. (mean) (O.D. at 405 nm),[14],3.83
same,O.D. (mean) (O.D. at 405 nm),[15],3.64
same,O.D. (O.D. at 405 nm),[16],1.34
same,O.D. (O.D. at 405 nm),[17],1.3
same,O.D. (O.D. at 405 nm),[18],3.3
same,O.D. (O.D. at 405 nm),[19],3.39
same,O.D. (O.D. at 405 nm),[20],0.94
same,O.D. (O.D. at 405 nm),[21],0.88
same,O.D. (O.D. at 405 nm),[22],1.94
same,O.D. (O.D. at 405 nm),[23],1.92
same,O.D. (O.D. at 405 nm),[24],3.29
same,O.D. (O.D. at 405 nm),[25],3.37
same,O.D. (O.D. at 405 nm),[26],3.1
same,O.D. (mean) (O.D. at 405 nm),[27],0.75
same,O.D. (mean) (O.D. at 405 nm),[28],0.63
same,O.D. (O.D. at 405 nm),[29],3.23
same,O.D. (O.D. at 405 nm),[30],3.52
same,O.D. (O.D. at 405 nm),[31],3.64
same,O.D. (mean) (O.D. at 405 nm),[32],3.27
same,O.D. (mean) (O.D. at 405 nm),[33],3.37
same,O.D. (mean) (O.D. at 405 nm),[34],2.98
same,O.D. (O.D. at 405 nm),[35],2.23
same,O.D. (O.D. at 405 nm),[36],2.07
same,O.D. (mean) (O.D. at 405 nm),[37],1.98
same,O.D. (mean) (O.D. at 405 nm),[38],1.92
same,O.D. (O.D. at 405 nm),[39],3.67
same,O.D. (O.D. at 405 nm),[40],3.36
same,O.D. (O.D. at 405 nm),[41],0.75
same,O.D. (O.D. at 405 nm),[42],0.61
same,O.D. (O.D. at 405 nm),[43],4.04
same,O.D. (O.D. at 405 nm),[44],3.89
same,O.D. (O.D. at 405 nm),[45],0.64
same,O.D. (O.D. at 405 nm),[46],0.62
same,O.D. (mean) (O.D. at 405 nm),[47],1.36
same,O.D. (mean) (O.D. at 405 nm),[48],1.32
same,O.D. (O.D. at 405 nm),[49],4
same,O.D. (O.D. at 405 nm),[50],3.83
same,O.D. (mean) (O.D. at 405 nm),[51],0.94
same,O.D. (mean) (O.D. at 405 nm),[52],0.92
same,O.D. (O.D. at 405 nm),[53],2.67
same,O.D. (O.D. at 405 nm),[54],2.73
same,O.D. (O.D. at 405 nm),[55],3.48
same,O.D. (O.D. at 405 nm),[56],3.55
same,O.D. (O.D. at 405 nm),[57],1.08
same,O.D. (O.D. at 405 nm),[58],0.95
same,O.D. (O.D. at 405 nm),[59],1.78
same,O.D. (O.D. at 405 nm),[60],1.78

# Reference: patent US20160000910A1
